The record followed here is US20140127127.

This series concerns L-pyroglutamyl-L-prolyl-L-arginine-p-nitroaniline hydrochloride.

Sequence of recombinant human hepsin extracellular region (Ser46 to Leu417), produced in P. pastoris (chain, as listed by the source): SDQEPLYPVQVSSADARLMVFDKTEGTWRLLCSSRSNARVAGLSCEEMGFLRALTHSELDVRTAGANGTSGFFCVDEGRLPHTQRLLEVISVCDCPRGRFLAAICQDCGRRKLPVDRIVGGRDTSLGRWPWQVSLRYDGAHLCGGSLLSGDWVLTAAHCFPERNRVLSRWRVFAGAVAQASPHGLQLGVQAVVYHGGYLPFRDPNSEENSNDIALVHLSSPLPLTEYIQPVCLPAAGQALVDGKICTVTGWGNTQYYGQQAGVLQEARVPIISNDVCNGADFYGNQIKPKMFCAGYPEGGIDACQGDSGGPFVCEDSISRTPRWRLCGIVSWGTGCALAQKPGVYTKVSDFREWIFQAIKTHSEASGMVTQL

Consider “recombinant human hepsin extracellular region (Ser46 to Leu417), produced in P. pastoris”, for which the Km is recorded as 0.4 nM hepsin, Km=170 µM and the “enzymatic cleavage of chromogenic substrate” value was “The purified hepsin was enzymatically active (FIG. 1B), cleaving the chromogenic serine protease substrate pyroGlu-Pro-Arg-pNA”.
